US9926214B2, “Use of peracetic acid/hydrogen peroxide and peroxide-reducing agents for treatment of drilling fluids, frac fluids, flowback water and disposal water” (Ecolab USA Inc., priority 2012, dated 2018)
Like-named read-outs stand apart in the source and are kept apart here.

Key:
[1] = Example 21 hydrogen peroxide decomposition with sequenced POAA and hypochlorite in deionized and contaminated water; assay type: physicochemical; settings: water not containing any biological contamination
Excerpt: Additional evaluation of the process of using peroxide-reducing agents in sequence was further analyzed as shown in Table 32 using additional water samples, including deionized water (i.e. not contaminated), and the Control (as set forth above as a contaminated water source).
The peracetic acid and sodium hypochlorite are indistinguishable in titration, and are therefore presumed to consist of ½ of the titrateable material; however the focus of the evaluation was solely on the hydrogen peroxide decomposition.

[2] = assay type: physicochemical
Method: Field of use applications were analyzed to determine the amount of a peroxide-reducing enzyme necessary to obtain desired concentrations of both peracid and hydrogen peroxide in a treated water source. EnviroSan (POAA) peracid composition was added to water to reach the targeted POAA concentrations set forth in Table 18, and the concentration of both POAA and H2O2 were confirmed by iodometric titration. Then catalase (ES2000) was added to the solution, and the sample was stored under ambient conditions. The concentration of POAA and H2O2 were monitored by the iodometric conditions.

[3] = Catalase 0.5 ppm, Time 1 hr, run starting at 14.6 ppm POAA
[4] = Catalase 1.0 ppm, Time 1 hr, run starting at 30.1 ppm POAA

OCl [hypochlorite, sodium hypochlorite]
impact on the decomposition of hydrogen peroxide [1]: efficacious impact on the decomposition of hydrogen peroxide

catalase
selectivity of H2O2 decomposition versus POAA stability [2]: selectively decomposes the H2O2 without having any negative impact on POAA stability | H2O2(ppm) ([2]; Catalase 0.5 ppm, Time 0 hr, run starting at 14.6 ppm POAA): 12.0 ppm | H2O2(ppm) [2, 3]: 7.5 ppm | POAA (ppm) [2, 3]: 15.0 ppm | POAA (ppm) ([2]; Catalase 0.5 ppm, Time 1 hr, run starting at 31.1 ppm POAA): 32.0 ppm | H2O2(ppm) ([2]; Catalase 0.5 ppm, Time 2 hr, run starting at 14.6 ppm POAA): 6.5 ppm | H2O2(ppm) ([2]; Catalase 0.5 ppm, Time 2 hr, run starting at 31.1 ppm POAA): 7.8 ppm | H2O2(ppm) ([2]; Catalase 0.5 ppm, Time 3.6 hr, run starting at 14.6 ppm POAA): 1.8 ppm | H2O2(ppm) ([2]; Catalase 0.5 ppm, Time 3.6 hr, run starting at 31.1 ppm POAA): 3.4 ppm | H2O2(ppm) ([2]; Catalase 1.0 ppm, Time 1 hr, run starting at 14.8 ppm POAA): 3.7 ppm | H2O2(ppm) [2, 4]: 7.6 ppm | POAA (ppm) [2, 4]: 31.0 ppm | H2O2(ppm) ([2]; Catalase 1.0 ppm, Time 2 hr, run starting at 14.8 ppm POAA): 1.1 ppm | H2O2(ppm) ([2]; Catalase 1.0 ppm, Time 2 hr, run starting at 30.1 ppm POAA): 2.3 ppm | H2O2(ppm) ([2]; Catalase 1.0 ppm, Time 3.6 hr, run starting at 14.8 ppm POAA): 0.4 ppm | H2O2(ppm) ([2]; Catalase 1.0 ppm, Time 3.6 hr, run starting at 30.1 ppm POAA): 0.0 ppm | lowest catalase concentration treating pond water with POAA and H2O2 ([2]; within 4 hours, ambient conditions): 0.5 ppm
